Reference: patent US20100028924A1, “Method Of Diagnosing Pon1-Hdl Associated Lipid Disorders” (Rappaport Family Institute Research in the Medical Sciences, priority 2006, published 2010)

Tests used:
[1] = molecular target: rHDL-apoA-I (reconstituted discoidal HDL particles carrying apolipoprotein A-I); experiment: SPR, rHDL-apoA-I immobilised; reference Δ20-rePON1-192Q
[2] = molecular target: rHDL-apoA-I (reconstituted discoidal HDL particles carrying apolipoprotein A-I); experiment: SPR (BIAcore 3000), biotinylated rHDL-apoA-I on streptavidin chip, PON1 injected, 25° C.

Chain of Δ20-rePON1-192Q (P27170 other isoform, or with tags, fused parts or gaps mutant): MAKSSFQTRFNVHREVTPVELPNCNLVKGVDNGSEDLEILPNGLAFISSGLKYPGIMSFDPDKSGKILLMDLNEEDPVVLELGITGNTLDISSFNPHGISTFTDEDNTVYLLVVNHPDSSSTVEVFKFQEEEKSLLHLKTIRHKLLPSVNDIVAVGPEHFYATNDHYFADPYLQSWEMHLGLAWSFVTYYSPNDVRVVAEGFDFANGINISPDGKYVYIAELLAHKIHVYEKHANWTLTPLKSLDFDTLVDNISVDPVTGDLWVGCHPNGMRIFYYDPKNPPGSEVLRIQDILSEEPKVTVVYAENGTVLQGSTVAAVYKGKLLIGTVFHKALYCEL
Chain of Δ20-rePON1-192R (P27170 other isoform, or with tags, fused parts or gaps mutant): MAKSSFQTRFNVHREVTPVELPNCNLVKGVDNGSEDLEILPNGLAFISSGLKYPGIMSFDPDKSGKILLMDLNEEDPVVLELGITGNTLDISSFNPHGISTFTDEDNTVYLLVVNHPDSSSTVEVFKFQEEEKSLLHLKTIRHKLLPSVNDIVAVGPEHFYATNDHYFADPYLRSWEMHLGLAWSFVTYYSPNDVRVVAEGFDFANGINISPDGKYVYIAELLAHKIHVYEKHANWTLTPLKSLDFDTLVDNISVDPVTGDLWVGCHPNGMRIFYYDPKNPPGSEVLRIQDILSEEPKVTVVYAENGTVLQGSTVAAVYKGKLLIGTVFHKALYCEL
Chain of wt Δ20-rePON1-192K (P27170 other isoform, or with tags, fused parts or gaps mutant): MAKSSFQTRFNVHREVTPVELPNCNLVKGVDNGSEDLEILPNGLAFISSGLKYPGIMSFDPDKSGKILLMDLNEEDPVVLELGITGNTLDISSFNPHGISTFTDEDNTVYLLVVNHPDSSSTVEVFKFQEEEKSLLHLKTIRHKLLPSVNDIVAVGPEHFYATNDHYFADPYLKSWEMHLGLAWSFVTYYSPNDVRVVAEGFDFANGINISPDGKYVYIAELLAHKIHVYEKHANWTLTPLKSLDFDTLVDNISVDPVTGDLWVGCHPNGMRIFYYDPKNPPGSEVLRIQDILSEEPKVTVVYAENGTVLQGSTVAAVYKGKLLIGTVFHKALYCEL

| fold higher HDL binding affinity than the Q isozyme [1] | Kd [2] | koff [2] | kon [2] | fold higher HDL affinity than the Q isozyme [1] | Substance |
| --- | --- | --- | --- | --- | --- |
| 3 fold | 100 nM | 0.02 s⁻¹ | 200000 M⁻¹ s⁻¹ |  | wt Δ20-rePON1-192K (from UniProt P27170 21-355) (enzyme) |
|  | 300 nM | 0.042 s⁻¹ | 140000 M⁻¹ s⁻¹ |  | Δ20-rePON1-192Q (from UniProt P27170 21-355) (enzyme) |
|  | 110 nM | 0.029 s⁻¹ | 260000 M⁻¹ s⁻¹ | 3 fold | Δ20-rePON1-192R (from UniProt P27170 21-355) (enzyme) |
